The values below come from the supplement of paper PMC9112550, “Optimization of the antimicrobial peptide Bac7 by deep mutational scanning” (BMC Biology, 2022).

In this series the test system is Escherichia coli TOP10. The series can be described thus: shrunken log2 fold change of peptide-encoding DNA abundance (4.5 h post-induction vs induction); higher = less antimicrobial activity (less host growth inhibition). The note with it: time post-induction: 4.5 h; library: site-saturation at positions 5, 18, 19, 20.
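Also: peptides expressed intracellularly from a pBAD plasmid library in pooled LB shake-flask culture, induced with 0.3% L-arabinose, DNA abundance read by NGS, three biological replicates, DESeq2 with apeglm shrinkage.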

Consider RRIRKRPPRLPRPRPRPDHIPRP, for which the “shrunken log2 fold change” value is -0.0249.

For the sequence RRIRDRPPRLPRPRPRPKMQPRP, the “shrunken log2 fold change” value was 0.247.

RRIRQRPPRLPRPRPRPVWSPRP: the “shrunken log2 fold change” value is -0.176.

Consider RRIRVRPPRLPRPRPRPSTNPRP, for which the “shrunken log2 fold change” value was -0.146.

Regarding RRIRNRPPRLPRPRPRPRSQPRP, the “shrunken log2 fold change” value was -0.0986.

Take RRIRDRPPRLPRPRPRPVCYPRP: the “shrunken log2 fold change” value is -0.0717.

For RRIRTRPPRLPRPRPRPFVQPRP, the “shrunken log2 fold change” value was -0.177.

In the case of RRIRERPPRLPRPRPRPDIMPRP, the “shrunken log2 fold change” value is -0.196.

RRIRSRPPRLPRPRPRPVAEPRP: the “shrunken log2 fold change” value was 1.28.

Regarding RRIRNRPPRLPRPRPRPGYFPRP, the “shrunken log2 fold change” value is -0.541.

In the case of RRIRHRPPRLPRPRPRPIVAPRP, the “shrunken log2 fold change” value is 0.0238.

Turning to RRIRGRPPRLPRPRPRPHGSPRP, the “shrunken log2 fold change” value is -0.0658.

For the sequence RRIRFRPPRLPRPRPRPYWQPRP, the “shrunken log2 fold change” value is -0.9.

RRIRWRPPRLPRPRPRPQEWPRP: the “shrunken log2 fold change” value was 0.248.

For the sequence RRIRGRPPRLPRPRPRPYFVPRP, the “shrunken log2 fold change” value stood at 0.0122.

Consider RRIRIRPPRLPRPRPRPPYAPRP, for which the “shrunken log2 fold change” value was -0.274.

For RRIRPRPPRLPRPRPRPNSMPRP, the “shrunken log2 fold change” value is -0.251.

For the sequence RRIRCRPPRLPRPRPRPEWMPRP, the “shrunken log2 fold change” value is -0.0041.

In the case of RRIRDRPPRLPRPRPRPVCVPRP, the “shrunken log2 fold change” value was 0.514.

For RRIRLRPPRLPRPRPRPERNPRP, the “shrunken log2 fold change” value is 0.129.

Turning to RRIRNRPPRLPRPRPRPCFAPRP, the “shrunken log2 fold change” value turned out to be 0.0964.

On to RRIRRRPPRLPRPRPRPWETPRP, for which the “shrunken log2 fold change” value is 0.00928.

For the sequence RRIRIRPPRLPRPRPRPYDAPRP, the “shrunken log2 fold change” value is -1.48.

With RRIRIRPPRLPRPRPRPHEDPRP, the “shrunken log2 fold change” value is -0.182.

Turning to RRIRRRPPRLPRPRPRPNQGPRP, the “shrunken log2 fold change” value came out at 0.134.

On to RRIRIRPPRLPRPRPRPVYNPRP, for which the “shrunken log2 fold change” value was -0.314.

For RRIRMRPPRLPRPRPRPNSQPRP, the “shrunken log2 fold change” value is -0.075.

Turning to RRIRPRPPRLPRPRPRPGVAPRP, the “shrunken log2 fold change” value came out at 0.27.

As for RRIRRRPPRLPRPRPRPFHCPRP, the “shrunken log2 fold change” value stood at 0.089.

As for RRIRIRPPRLPRPRPRPWDYPRP, the “shrunken log2 fold change” value was -0.00975.

Regarding RRIRRRPPRLPRPRPRPDNYPRP, the “shrunken log2 fold change” value was -0.323.

On to RRIRNRPPRLPRPRPRPFMMPRP, for which the “shrunken log2 fold change” value is -0.181.

Take RRIRARPPRLPRPRPRPHLHPRP: the “shrunken log2 fold change” value was found to be 0.0371.

Take RRIRQRPPRLPRPRPRPENTPRP: the “shrunken log2 fold change” value is -0.387.

Regarding RRIRPRPPRLPRPRPRPCNCPRP, the “shrunken log2 fold change” value was -0.107.

With RRIRPRPPRLPRPRPRPTGIPRP, the “shrunken log2 fold change” value was 0.726.

As for RRIRERPPRLPRPRPRPEINPRP, the “shrunken log2 fold change” value was -0.2.

For the sequence RRIRERPPRLPRPRPRPSAAPRP, the “shrunken log2 fold change” value is 0.133.

With RRIRRRPPRLPRPRPRPDPNPRP, the “shrunken log2 fold change” value was determined as 0.0237.

On to RRIRFRPPRLPRPRPRPLPNPRP, for which the “shrunken log2 fold change” value turned out to be 0.184.

Regarding RRIRGRPPRLPRPRPRPTKVPRP, the “shrunken log2 fold change” value amounted to 0.414.

As for RRIRLRPPRLPRPRPRPTDGPRP, the “shrunken log2 fold change” value is -0.0875.

RRIRDRPPRLPRPRPRPIQYPRP: the “shrunken log2 fold change” value was -0.0088.

As to RRIRIRPPRLPRPRPRPSPEPRP, the “shrunken log2 fold change” value is -0.241.

Consider RRIRARPPRLPRPRPRPWQCPRP, for which the “shrunken log2 fold change” value was -0.197.

On to RRIRPRPPRLPRPRPRPQRVPRP, for which the “shrunken log2 fold change” value worked out at 0.202.

As for RRIRVRPPRLPRPRPRPNGEPRP, the “shrunken log2 fold change” value came out at 0.0914.

Regarding RRIRARPPRLPRPRPRPTVTPRP, the “shrunken log2 fold change” value came out at 0.707.

For the sequence RRIRNRPPRLPRPRPRPVLGPRP, the “shrunken log2 fold change” value stood at 0.00359.

In the case of RRIRFRPPRLPRPRPRPFRDPRP, the “shrunken log2 fold change” value is -0.276.

For RRIRARPPRLPRPRPRPTCQPRP, the “shrunken log2 fold change” value was 0.431.

Turning to RRIRHRPPRLPRPRPRPRDTPRP, the “shrunken log2 fold change” value was found to be 0.123.

RRIRWRPPRLPRPRPRPWWYPRP: the “shrunken log2 fold change” value is -0.203.

Turning to RRIRDRPPRLPRPRPRPRTVPRP, the “shrunken log2 fold change” value is -0.142.

RRIRTRPPRLPRPRPRPFGYPRP: the “shrunken log2 fold change” value worked out at 0.0679.

Regarding RRIRMRPPRLPRPRPRPANAPRP, the “shrunken log2 fold change” value is 0.442.

On to RRIRGRPPRLPRPRPRPYVDPRP, for which the “shrunken log2 fold change” value is -0.0322.

For RRIRPRPPRLPRPRPRPFVNPRP, the “shrunken log2 fold change” value is -0.196.

For the sequence RRIRARPPRLPRPRPRPYTCPRP, the “shrunken log2 fold change” value is -0.0591.

On to RRIRKRPPRLPRPRPRPGIIPRP, for which the “shrunken log2 fold change” value was -0.000605.

With RRIRCRPPRLPRPRPRPRHIPRP, the “shrunken log2 fold change” value was -0.28.

As for RRIRVRPPRLPRPRPRPRVAPRP, the “shrunken log2 fold change” value came to 0.381.

Regarding RRIRSRPPRLPRPRPRPWYCPRP, the “shrunken log2 fold change” value was determined as 0.017.

Consider RRIRSRPPRLPRPRPRPEILPRP, for which the “shrunken log2 fold change” value was -0.0652.

As for RRIRRRPPRLPRPRPRPVKFPRP, the “shrunken log2 fold change” value is 0.0517.

On to RRIRTRPPRLPRPRPRPRVDPRP, for which the “shrunken log2 fold change” value was determined as 0.181.

Take RRIRLRPPRLPRPRPRPVGNPRP: the “shrunken log2 fold change” value is 0.0885.

Regarding RRIRGRPPRLPRPRPRPYQFPRP, the “shrunken log2 fold change” value is -0.297.

For the sequence RRIRKRPPRLPRPRPRPEPYPRP, the “shrunken log2 fold change” value was -0.0587.

Take RRIRKRPPRLPRPRPRPIARPRP: the “shrunken log2 fold change” value is -0.0481.

Turning to RRIRHRPPRLPRPRPRPFAMPRP, the “shrunken log2 fold change” value was -0.424.

For the sequence RRIRGRPPRLPRPRPRPQYNPRP, the “shrunken log2 fold change” value was -0.0557.

In the case of RRIRRRPPRLPRPRPRPHNKPRP, the “shrunken log2 fold change” value was -0.276.

Regarding RRIRNRPPRLPRPRPRPRIKPRP, the “shrunken log2 fold change” value was 0.0822.

Consider RRIRHRPPRLPRPRPRPRTIPRP, for which the “shrunken log2 fold change” value was -0.344.

For RRIRPRPPRLPRPRPRPCERPRP, the “shrunken log2 fold change” value is 0.0579.

RRIRARPPRLPRPRPRPYVSPRP: the “shrunken log2 fold change” value was -0.0383.

Regarding RRIRYRPPRLPRPRPRPMLNPRP, the “shrunken log2 fold change” value was -0.892.

Turning to RRIRRRPPRLPRPRPRPWDQPRP, the “shrunken log2 fold change” value amounted to 0.0792.

For RRIRKRPPRLPRPRPRPWFVPRP, the “shrunken log2 fold change” value is -0.036.

On to RRIRKRPPRLPRPRPRPPEQPRP, for which the “shrunken log2 fold change” value came out at 0.0815.

As for RRIRCRPPRLPRPRPRPYHKPRP, the “shrunken log2 fold change” value was -0.743.

RRIRTRPPRLPRPRPRPSAIPRP: the “shrunken log2 fold change” value was -0.979.

As for RRIRSRPPRLPRPRPRPRPFPRP, the “shrunken log2 fold change” value came out at 0.188.

Take RRIRVRPPRLPRPRPRPWACPRP: the “shrunken log2 fold change” value was -0.191.

As to RRIRERPPRLPRPRPRPMQFPRP, the “shrunken log2 fold change” value was -0.248.

As to RRIRLRPPRLPRPRPRPCCAPRP, the “shrunken log2 fold change” value was 0.694.

For the sequence RRIRWRPPRLPRPRPRPLFCPRP, the “shrunken log2 fold change” value is 0.22.

Consider RRIRSRPPRLPRPRPRPFAYPRP, for which the “shrunken log2 fold change” value was -0.348.

As for RRIRKRPPRLPRPRPRPYNIPRP, the “shrunken log2 fold change” value is -0.133.

In the case of RRIRLRPPRLPRPRPRPPLWPRP, the “shrunken log2 fold change” value amounted to 0.447.

RRIRERPPRLPRPRPRPAIDPRP: the “shrunken log2 fold change” value is -0.457.

With RRIRCRPPRLPRPRPRPMYYPRP, the “shrunken log2 fold change” value is -0.472.

Consider RRIRRRPPRLPRPRPRPMNRPRP, for which the “shrunken log2 fold change” value was -0.321.

Consider RRIRFRPPRLPRPRPRPKEIPRP, for which the “shrunken log2 fold change” value is -0.0277.

In the case of RRIRKRPPRLPRPRPRPAFAPRP, the “shrunken log2 fold change” value came out at 0.647.

With RRIRGRPPRLPRPRPRPFKVPRP, the “shrunken log2 fold change” value is -0.14.

For RRIRARPPRLPRPRPRPFWWPRP, the “shrunken log2 fold change” value was determined as 0.923.

Consider RRIRGRPPRLPRPRPRPLFHPRP, for which the “shrunken log2 fold change” value turned out to be 0.134.

Consider RRIRWRPPRLPRPRPRPVGNPRP, for which the “shrunken log2 fold change” value stood at 0.0858.

Take RRIRARPPRLPRPRPRPEKIPRP: the “shrunken log2 fold change” value came to 0.649.

Regarding RRIRLRPPRLPRPRPRPYLEPRP, the “shrunken log2 fold change” value is -0.169.

For RRIRWRPPRLPRPRPRPYKYPRP, the “shrunken log2 fold change” value was -0.977.

RRIRHRPPRLPRPRPRPFHTPRP: the “shrunken log2 fold change” value is -0.0888.

As to RRIRARPPRLPRPRPRPRVSPRP, the “shrunken log2 fold change” value worked out at 0.492.

Regarding RRIRHRPPRLPRPRPRPAYNPRP, the “shrunken log2 fold change” value was -1.04.

For RRIRLRPPRLPRPRPRPCQRPRP, the “shrunken log2 fold change” value was -0.00788.

For the sequence RRIRWRPPRLPRPRPRPSIDPRP, the “shrunken log2 fold change” value is 0.452.

Turning to RRIRVRPPRLPRPRPRPIVCPRP, the “shrunken log2 fold change” value is -0.0744.

As to RRIRKRPPRLPRPRPRPKGYPRP, the “shrunken log2 fold change” value is -0.00627.

On to RRIRVRPPRLPRPRPRPHPGPRP, for which the “shrunken log2 fold change” value was -0.325.

Take RRIRPRPPRLPRPRPRPLVMPRP: the “shrunken log2 fold change” value worked out at 0.0377.

Consider RRIRCRPPRLPRPRPRPLIDPRP, for which the “shrunken log2 fold change” value is -0.301.

Consider RRIRWRPPRLPRPRPRPEPQPRP, for which the “shrunken log2 fold change” value came out at 0.818.

In the case of RRIRIRPPRLPRPRPRPPRHPRP, the “shrunken log2 fold change” value came to 0.166.

As to RRIRGRPPRLPRPRPRPRYHPRP, the “shrunken log2 fold change” value is -0.0711.

For the sequence RRIRKRPPRLPRPRPRPPMPPRP, the “shrunken log2 fold change” value came out at 0.525.

For the sequence RRIRNRPPRLPRPRPRPWECPRP, the “shrunken log2 fold change” value was -0.00145.

Take RRIRNRPPRLPRPRPRPNRKPRP: the “shrunken log2 fold change” value came to 2.2.

As to RRIRWRPPRLPRPRPRPQYAPRP, the “shrunken log2 fold change” value is -0.0905.

As for RRIRPRPPRLPRPRPRPWQYPRP, the “shrunken log2 fold change” value was found to be 0.0173.

In the case of RRIRWRPPRLPRPRPRPRSPPRP, the “shrunken log2 fold change” value is 0.779.

With RRIRSRPPRLPRPRPRPYRTPRP, the “shrunken log2 fold change” value was found to be 0.00951.

Take RRIRPRPPRLPRPRPRPGFNPRP: the “shrunken log2 fold change” value was -0.173.

Turning to RRIRIRPPRLPRPRPRPLHLPRP, the “shrunken log2 fold change” value is -1.08.
